In patent publication US20140255303A1 (UNIVERSITE JOSEPH FOURIER GRENOBLE 1, published 2014):

T1: human recombinant VCAM-1 (human, UniProt P19320 25-698)
T1 construct: Bought recombinant protein (RnD Systems), immobilised on a CM5 chip for SPR; also called hVCAM-1; human VCAM-1
T1 sequence (looked up): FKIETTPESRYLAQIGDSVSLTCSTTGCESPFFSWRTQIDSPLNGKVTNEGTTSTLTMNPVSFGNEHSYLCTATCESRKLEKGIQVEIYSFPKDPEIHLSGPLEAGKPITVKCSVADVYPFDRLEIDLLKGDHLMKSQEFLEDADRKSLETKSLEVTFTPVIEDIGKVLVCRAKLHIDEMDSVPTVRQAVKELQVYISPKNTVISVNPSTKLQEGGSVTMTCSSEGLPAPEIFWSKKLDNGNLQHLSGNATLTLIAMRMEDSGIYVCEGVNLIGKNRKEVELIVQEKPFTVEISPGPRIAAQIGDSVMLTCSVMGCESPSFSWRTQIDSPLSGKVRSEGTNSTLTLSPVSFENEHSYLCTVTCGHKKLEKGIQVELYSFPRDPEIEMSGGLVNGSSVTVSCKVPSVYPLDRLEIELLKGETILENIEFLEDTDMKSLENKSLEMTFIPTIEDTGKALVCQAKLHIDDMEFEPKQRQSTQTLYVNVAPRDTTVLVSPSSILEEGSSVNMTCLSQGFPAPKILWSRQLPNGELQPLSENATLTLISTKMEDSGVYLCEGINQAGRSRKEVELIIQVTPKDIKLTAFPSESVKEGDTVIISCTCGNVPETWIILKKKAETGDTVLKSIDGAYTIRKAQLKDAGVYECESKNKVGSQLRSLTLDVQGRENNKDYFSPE

T2: murine recombinant VCAM-1 (murine, UniProt P29533 25-698)
T2 construct: Bought recombinant protein (RnD Systems), immobilised on a CM5 chip for SPR; also called mVCAM-1; murine VCAM-1
T2 sequence (looked up): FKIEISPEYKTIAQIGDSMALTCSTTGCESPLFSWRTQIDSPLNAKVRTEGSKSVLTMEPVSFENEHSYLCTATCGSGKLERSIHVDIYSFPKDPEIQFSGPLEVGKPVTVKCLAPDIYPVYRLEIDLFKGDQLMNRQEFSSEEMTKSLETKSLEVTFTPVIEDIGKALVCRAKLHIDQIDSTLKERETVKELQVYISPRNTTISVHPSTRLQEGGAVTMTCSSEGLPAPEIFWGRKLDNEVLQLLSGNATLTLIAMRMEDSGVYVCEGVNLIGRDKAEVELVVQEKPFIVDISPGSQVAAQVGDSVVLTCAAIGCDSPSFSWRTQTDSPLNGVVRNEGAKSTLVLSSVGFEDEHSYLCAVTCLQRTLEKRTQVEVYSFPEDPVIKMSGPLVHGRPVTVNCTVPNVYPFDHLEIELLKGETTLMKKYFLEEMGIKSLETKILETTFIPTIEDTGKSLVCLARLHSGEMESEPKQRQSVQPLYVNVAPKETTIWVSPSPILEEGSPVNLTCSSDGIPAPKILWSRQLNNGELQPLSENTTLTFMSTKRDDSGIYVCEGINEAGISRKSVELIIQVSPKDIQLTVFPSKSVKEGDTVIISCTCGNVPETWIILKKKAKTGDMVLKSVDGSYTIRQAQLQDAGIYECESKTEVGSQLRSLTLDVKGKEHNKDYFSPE

T3: rabbit VCAM-1 on transfected CHO cells (rabbit, UniProt A0A5F9DFM7 25-739)
T3 construct: whole, on cells
T3 sequence: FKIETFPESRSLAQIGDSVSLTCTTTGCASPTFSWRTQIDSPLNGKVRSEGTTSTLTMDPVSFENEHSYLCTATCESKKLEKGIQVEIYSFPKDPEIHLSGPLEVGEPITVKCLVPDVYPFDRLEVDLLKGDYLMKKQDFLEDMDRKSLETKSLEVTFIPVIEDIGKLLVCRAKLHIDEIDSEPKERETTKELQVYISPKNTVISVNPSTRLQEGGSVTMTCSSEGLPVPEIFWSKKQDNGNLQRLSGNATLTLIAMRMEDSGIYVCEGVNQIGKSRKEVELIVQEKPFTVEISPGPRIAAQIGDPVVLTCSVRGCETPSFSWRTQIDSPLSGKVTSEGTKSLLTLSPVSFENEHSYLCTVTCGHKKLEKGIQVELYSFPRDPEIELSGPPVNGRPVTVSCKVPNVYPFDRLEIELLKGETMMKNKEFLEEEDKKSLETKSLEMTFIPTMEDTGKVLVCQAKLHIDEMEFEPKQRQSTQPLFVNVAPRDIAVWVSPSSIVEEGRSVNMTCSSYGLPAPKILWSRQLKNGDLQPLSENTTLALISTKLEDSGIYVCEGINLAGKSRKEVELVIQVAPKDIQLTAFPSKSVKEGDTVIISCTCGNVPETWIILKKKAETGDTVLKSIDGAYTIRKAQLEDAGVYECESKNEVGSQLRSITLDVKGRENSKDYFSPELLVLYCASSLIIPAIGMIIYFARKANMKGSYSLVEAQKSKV


Key:
human recombinant VCAM-1 = target: T1, human recombinant VCAM-1; test: SPR, Biacore 3000, recombinant hVCAM-1 immobilised on CM5 chip, 1:1 model
Procedure: (§1) The affinity of human or murine recombinant VCAM-1 nanobodies was determined by SPR analysis on a Biacore 3000 apparatus. Recombinant mouse ICAM-1 (RnD Systems) was used as a negative control. The recombinant proteins were immobilized on a sensor chip CM5 (Biacore, Uppsala, Sweden) according to the instructions of manufacturer. Serial half-dilutions of the nanodbodies from 50 to 1 nM in PBS with 0.005% Tween-20® were tested. The affinity constants were determined by using adjustment of the standard association model 1:1 (BIAevaluation software package).

[1] = target: T2, murine recombinant VCAM-1; test: SPR, Biacore 3000, recombinant mVCAM-1 immobilised on CM5 chip, 1:1 model
Procedure: as §1

[2] = target: T3, rabbit VCAM-1 on transfected CHO cells; test: flow cytometry (PE-A) on CHO cells transiently transfected with rabbit VCAM-1; nanobody, then anti-His-tag mAb and anti-mouse IgG1 [Continuation), panel 8B]
Procedure: (§2) 10⁵ CHO cells either transiently transfected or not with a plasmid coding for rabbit VCAM-1 were sequentially incubated with 1 μg of nanobodies, 1 μg of anti-His-tag monoclonal antibody (Serotec) and 200 ng of anti-mouse rat IgG₁ (BD Biosciences). The bond was measured on a FACS Canto II analyzer (BD Biosciences, Franklin Lakes, USA) and the data analysed with the FlowJo software package (TreeStar, Ashland, USA). A negative control was made by omitting the nanobody.

[3] = target: T3, rabbit VCAM-1 on transfected CHO cells; test: flow cytometry (PE-A) on CHO cells transiently transfected with rabbit VCAM-1; nanobody, then anti-His-tag mAb and anti-mouse IgG1 [Continuation), panel 3B]
Procedure: as §2

| Kd (human recombinant VCAM-1) [nM] | Kd [1] [nM] | Binder | binding result [2] | binding result [3] |
| --- | --- | --- | --- | --- |
| 1.4 | 13.2 | cAbVCAM1-8 (VHH, Dromedary nanobody produced with a hexahistidine tag in E. coli; also called anti-VCAM-1 nanobody; not shown: hexahistidine tag) VHH: QVQLQESGGGLVQPGGSLRLSCAASGFTFSNYYMTWVRRAPGKGLEWVSRINSDGSTLYLPSVKGRFTISRDNAKNTLYLQMNSLKSEDTGWYYCVEGKSSVRGQGTQVTVSS | no binding (tested: 1 µg per 10^5 cells (single amount)) | – |
| 9.1 | 2.4 | cAbVCAM1-3 (VHH, Dromedary nanobody produced with a hexahistidine tag in E. coli; also called anti-VCAM-1 nanobody; not shown: hexahistidine tag) VHH: QVQLQESGGGSVQAGGSLRLSCTASGFTYSSYYMSWVRQAPGKGLEWVSGINVDGSNTYYADSVKGRFTISRDNAKNTLYLQMNSLKSEDTALYYCATGSGRDSYDCYSGSWCPKGQGTQVTVSS | – | no binding (tested: 1 µg per 10^5 cells (single amount)) |
| 5.3 | 0.9 | cAbVCAM1-9 (VHH, Dromedary nanobody produced with a hexahistidine tag in E. coli; also called anti-VCAM-1 nanobody; not shown: hexahistidine tag) VHH: QVQLQESGGGLVQPGGSLRLSCAASGFTFSSYYMSWVRQAPGKGLEWVSGINVDGSNTYYADSVKGRFTISRDNAKNTLYLQMNSLKSEDTALYYCATGSGRDSYDCYSGSWCPKGQGTQVTVSS | – | – |
| 6.5 | 2 | cAbVCAM1-5 (VHH, Dromedary nanobody produced with a hexahistidine tag in E. coli; also called anti-VCAM-1 nanobody; not shown: hexahistidine tag) VHH: QVQLQESGGGSVQTGGSLRLSCAASGYTNSIMYMAWFRQAPGKKREGVAAIRFPDDSAYYAGSVKGRFTISHDNAKNTVYLQMNNLNPEDTAMYYCAARSSPYSFAWNDPSNYNYWGQGTQVTVSS | – | – |
